Results from patent US7569390 (MEDICAL RESEARCH COUNCIL, dated 2009).

Molecular target: T1, Syk/BTM116 (LexA-Syk bait) (E. coli, UniProt P48025 1-629)
T1 construct: also called pLexA-Syk; not shown: E. coli LexA domain of vector pBTM116
Assay: yeast two-hybrid (L40), β-galactosidase assay; FIG. 2B row 2, empty pVP16 control

T1 sequence (P48025 whole entry, the tested form may be a part): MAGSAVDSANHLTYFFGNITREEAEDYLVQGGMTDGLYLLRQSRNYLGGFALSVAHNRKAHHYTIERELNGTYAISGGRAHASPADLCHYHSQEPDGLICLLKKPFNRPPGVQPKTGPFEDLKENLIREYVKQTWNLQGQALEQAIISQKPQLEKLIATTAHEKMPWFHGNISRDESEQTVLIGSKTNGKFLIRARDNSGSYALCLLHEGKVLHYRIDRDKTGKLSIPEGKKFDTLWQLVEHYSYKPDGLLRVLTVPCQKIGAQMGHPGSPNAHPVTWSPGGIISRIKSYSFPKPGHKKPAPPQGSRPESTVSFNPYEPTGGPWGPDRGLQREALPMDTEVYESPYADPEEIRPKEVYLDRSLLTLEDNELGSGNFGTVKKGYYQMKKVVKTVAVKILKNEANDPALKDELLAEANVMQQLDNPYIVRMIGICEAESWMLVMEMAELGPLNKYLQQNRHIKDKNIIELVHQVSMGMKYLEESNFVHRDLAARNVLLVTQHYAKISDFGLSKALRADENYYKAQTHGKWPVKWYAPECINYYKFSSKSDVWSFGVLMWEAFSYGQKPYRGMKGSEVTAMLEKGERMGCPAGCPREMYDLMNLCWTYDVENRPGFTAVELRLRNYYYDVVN

B1: VP16 vector alone (pVP16, no scFv insert) (other)
chain: STAPPTDVSLGDELHLDGEDVAMAHADALDDFDLDMLGDGDSPGPGFTPHDSAPYGALDMADFEFEQMFTDALGIDEYGG
notes: also called empty pVP16 vector
binding result: no binding
